Assay results from US20190161551A1 (Regeneron, published 2019).

B1: rat TrkB extracellular domain expressed with a C-terminal myc-myc-hexahistidine tag (receptor)
chain: CPMSCKCSTTRIWCTEPSPGIVAFPRLEPNSIDPENITEILIANQKRLEIINEDDVEAYVGLKNLTIVDSGLKFVAYKAFLKNGNLRHINFTRNKLTSLSRRHFRHLDLSDLILTGNPFTCSCDIMWLKTLQETKSSPDTQDLYCLNESSKNTPLANLQIPNCGLPSARLAAPNLTVEEGKSVTISCSVGGDPLPTLYWDVGNLVSKHMNETSHTQGSLRITNISSDDSGKQISCVAENLVGEDQDSVNLTVHFAPTITFLESPTSDHHWCIPFTVRGNPKPALQWFYNGAILNESKYICTKIHVTNHTEYHGCLQLDNPTHMNNGDYTLMAKNEYGKDERQISAHFMGRPGVDYETNPNYPEVLYEDWTTPTDIGDTTNKSNEIPSTDVADQTNREHEQKLISEEDLGGEQKLISEEDLHHHHHH
notes: also called rTrkB.mmH; rTRKB.mmH
B2: M2aM14178N (antibody, mouse IgG2a, V domains shown)
VH: EVQLVESGGGLVKPGGSLKLSCTASGFTFSSYAMSWVRQTPEKRLEWVANISDGGTYTYYPDNIKGRFTISRDNAKNNLYLQMSHLESEDTAMYYCIRGDVYYVRFAYWGQGTLVTVSA
VL: QAVVTQESALTTSPGETVTLTCRSSTGAVTSSNHANWVQEKPDHLFTGLIGGTNNRAPGVPARFSGSLIGDKAALTITGAQTEDEAIYFCALWHSNHWVFGGGTKLTVLG
notes: Anti-mouse TrkB antibody from hybridoma, mouse IgG2a Fc; also called surrogate anti-mouse TrkB antibody
B3: human brain derived neurotrophic factor (ligand, UniProt P23560 129-247, looked up)
chain: HSDPARRGELSVCDSISEWVTAADKKTAVDMSGGTVTVLEKVPVSKGQLKQYFYETKCNPMGYTKEGCRGIDKRHWNSQCRTTQSYVRALTMDSKKRIGWRFIRIDTSCVCTLTIKRGR

How the values were obtained:
[1] = biological target: B3; assay: ELISA: dose curve of rat TrkB.mmh binding to plate-coated BDNF, absorbance 450 nm
Procedure: (§1) Experiments were carried out using the following procedure. Human BDNF was coated at a concentration of 0.5 μg/mL (for blocking mouse TrkB.hFc interaction) or 0.3 μg/mL (for blocking rat TrkB.mmh interaction) in PBS on 96-well microtiter plate and incubated overnight at 4° C. […] In a 96-well dilution plate, 850 pM mouse TrkB.hFc or rat TrkB.mmh was mixed with the three-fold serially diluted anti-mouse TrkB antibodies and control antibody. The final antibody concentrations ranged from 1.69 pM to 100 nM. The protein-antibody mix was incubated at room temperature (RT) for 1 hour. The pre-bound mix was then transferred in duplicates to microtiter plates coated with BDNF. […] Plate-bound mouse TrkB.hFc was detected with HRP-conjugated goat anti-human Fcγ fragment specific antibody (Jackson Immunoresearch) and rat TrkB.mmh was detected with HRP-conjugated anti-histidine antibody (Qiagen). […]
The absorbance at 450 nm for each well was recorded and plotted as a function of the concentration of antibody. Data was analyzed in GraphPad Prism software using a four-parameter logistic equation over an 11-point dose response curve and IC₅₀ values were calculated. […] Percent blockade at maximum concentration of the antibody tested was calculated as an indicator of the ability of the antibodies to block the binding of TrkB to BDNF on the plate relative to the baseline of the assay. […]

[2] = biological target: B3; assay: ELISA, dose-response of TrkB on plate-coated BDNF
Text: FIG. 5. Consists of FIG. 5A and FIG. 5B which show the ability of anti-mouse TrkB monoclonal antibodies to block interaction between mouse or rat TrkB and its ligand BDNF (Brain Derived Neurotrophic Factor). ELISA-based methods were used to assess the binding of (FIG. 5A with two graphs) mouse TrkB.hFc and (FIG. 5B with two graphs) rat TrkB.mmh to plate coated BDNF in presence of a range of concentrations of Anti-mouse TrkB and isotype control mAbs. […] Molarity (M) indicates antibody concentration for mAbs. Error bars represent Standard Deviation.
as §1, with “hour.” for “hour. The pre-bound mix was then transferred in duplicates to microtiter plates coated with BDNF.”

[3] = biological target: T1, human TrkB expressed on HEK293/SRE-Luc/hTrkB cells (human, UniProt Q16620 32-822); assay: cell-based or functional assay
T1 sequence (Q16620 32-822): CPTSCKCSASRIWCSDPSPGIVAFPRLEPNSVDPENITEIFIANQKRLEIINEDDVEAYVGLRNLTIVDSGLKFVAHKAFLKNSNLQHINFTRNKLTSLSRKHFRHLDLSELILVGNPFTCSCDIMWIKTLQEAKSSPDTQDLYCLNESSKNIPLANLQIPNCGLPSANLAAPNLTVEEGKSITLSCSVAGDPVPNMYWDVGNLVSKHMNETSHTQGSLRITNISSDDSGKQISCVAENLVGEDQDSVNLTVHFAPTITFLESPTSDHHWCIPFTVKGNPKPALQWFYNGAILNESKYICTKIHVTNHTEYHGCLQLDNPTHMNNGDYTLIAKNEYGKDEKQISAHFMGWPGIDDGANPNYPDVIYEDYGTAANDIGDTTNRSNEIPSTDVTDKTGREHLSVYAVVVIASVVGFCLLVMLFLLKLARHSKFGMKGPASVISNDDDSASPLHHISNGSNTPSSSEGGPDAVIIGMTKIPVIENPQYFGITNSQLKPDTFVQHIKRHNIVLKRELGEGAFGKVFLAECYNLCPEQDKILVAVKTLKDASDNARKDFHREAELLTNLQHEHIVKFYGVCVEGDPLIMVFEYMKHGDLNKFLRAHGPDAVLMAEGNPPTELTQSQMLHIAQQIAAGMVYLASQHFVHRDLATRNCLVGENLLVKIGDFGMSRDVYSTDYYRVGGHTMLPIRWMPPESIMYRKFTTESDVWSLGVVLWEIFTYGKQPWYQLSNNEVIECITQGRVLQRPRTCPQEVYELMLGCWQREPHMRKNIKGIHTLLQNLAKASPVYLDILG

[4] = biological target: T2, mouse TrkB extracellular domain fused to the transmembrane and cytoplasmic domains of human TrkB, expressed … (mouse; human, UniProt Q16620 431-822, limits assumed); assay: cell-based or functional assay
T2 sequence (Q16620 other isoform, or with tags, fused parts or gaps limits assumed, form in doubt): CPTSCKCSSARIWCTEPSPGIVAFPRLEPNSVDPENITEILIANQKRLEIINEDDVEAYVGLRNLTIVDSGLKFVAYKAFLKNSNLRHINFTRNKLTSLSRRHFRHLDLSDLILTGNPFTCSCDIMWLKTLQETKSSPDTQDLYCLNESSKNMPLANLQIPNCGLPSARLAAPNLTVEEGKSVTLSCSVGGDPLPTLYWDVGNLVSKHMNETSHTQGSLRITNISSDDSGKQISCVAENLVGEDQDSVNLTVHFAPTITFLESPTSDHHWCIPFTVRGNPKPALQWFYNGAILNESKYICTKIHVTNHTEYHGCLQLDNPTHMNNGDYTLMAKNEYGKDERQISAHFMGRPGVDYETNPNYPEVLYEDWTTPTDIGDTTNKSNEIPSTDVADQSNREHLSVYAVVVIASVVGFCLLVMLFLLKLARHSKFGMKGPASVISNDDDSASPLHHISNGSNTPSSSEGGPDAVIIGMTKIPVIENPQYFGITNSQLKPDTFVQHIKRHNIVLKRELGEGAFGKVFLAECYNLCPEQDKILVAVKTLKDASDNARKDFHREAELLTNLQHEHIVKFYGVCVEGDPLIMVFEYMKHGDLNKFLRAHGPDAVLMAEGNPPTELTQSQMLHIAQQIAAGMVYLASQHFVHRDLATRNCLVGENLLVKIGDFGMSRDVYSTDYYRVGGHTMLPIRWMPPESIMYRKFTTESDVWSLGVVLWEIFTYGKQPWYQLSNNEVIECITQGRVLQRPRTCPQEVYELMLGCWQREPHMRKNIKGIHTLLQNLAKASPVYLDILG

mouse TrkB.hFc [5] = biological target: T3, mouse TrkB.hFc (mouse); assay: BLI Octet, captured mTrkB.hFc, 300 nM mAb (BDNF run)
T3 construct: also called mTrkB.hFc; mTrkB-hFc
T3 sequence (chain, as listed by the source limits assumed): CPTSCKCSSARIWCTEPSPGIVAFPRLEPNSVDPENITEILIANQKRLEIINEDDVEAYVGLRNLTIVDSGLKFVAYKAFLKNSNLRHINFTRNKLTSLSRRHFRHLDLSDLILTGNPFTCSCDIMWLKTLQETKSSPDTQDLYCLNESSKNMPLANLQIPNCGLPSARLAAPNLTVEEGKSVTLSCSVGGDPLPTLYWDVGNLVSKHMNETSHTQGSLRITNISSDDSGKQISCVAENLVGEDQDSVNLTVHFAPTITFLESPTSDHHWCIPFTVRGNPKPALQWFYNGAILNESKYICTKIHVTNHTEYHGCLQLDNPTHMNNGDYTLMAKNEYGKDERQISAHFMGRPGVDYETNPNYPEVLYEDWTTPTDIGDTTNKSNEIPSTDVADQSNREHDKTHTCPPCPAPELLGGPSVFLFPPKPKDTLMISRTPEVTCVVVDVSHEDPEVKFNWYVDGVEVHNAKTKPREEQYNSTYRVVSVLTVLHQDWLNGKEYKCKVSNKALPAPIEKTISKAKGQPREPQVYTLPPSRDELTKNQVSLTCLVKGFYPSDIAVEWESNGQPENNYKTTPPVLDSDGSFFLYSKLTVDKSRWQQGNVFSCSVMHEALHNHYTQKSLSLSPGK
Procedure: (§2) Blocking of BDNF or NT-4 from binding to TrkB by anti-human TrkB or anti-mouse TrkB antibodies was evaluated using a real-time bio-layer interferometry (BLI) based Octet HTX instrument. The entire study was performed in 10 mM HEPES pH 7.4, 300 mM NaCl, 3 mM EDTA, 1 mg/mL BSA, 0.02% NaN3 and 0.05% v/v Surfactant Tween-20 (HBS-EBT running buffer) at 25° C. All the samples were dispensed in a 384 tilted well plate and the plate was placed on the orbital shaker with the shake speed of 1000 rpm. hTrkB.mFc was captured on anti-mFc (AMC) Octet sensors while hTrkB.hFc or mTrkB.hFc were captured on anti-hFc (AHC) Octet sensors by dipping in wells containing 10 μg/mL of TrkB reagents for 2 minutes. hTrkB.mFc or hTrkB.hFc captured Octet biosensors were saturated by dipping in wells containing 300 nM of different TrkB mAbs for 4 minutes followed by dipping Octet biosensors in wells containing 20 nM of BDNF, hNT-4, or mNT-4 for 2 minutes. Binding of BDNF, hNT-4, or mNT-4 to the complex of TrkB and different TrkB mAbs was determined using Scrubber 2.0c analysis software.

mouse TrkB.hFc [6] = biological target: T3, mouse TrkB.hFc; assay: BLI Octet, captured mTrkB.hFc saturated with mNT-4, 300 nM mAb
Procedure: (§3) Blocking of anti-human TrkB or anti-mouse TrkB antibodies from binding to TrkB by BDNF or NT-4 was evaluated using a real-time bio-layer interferometry (BLI) based Octet HTX instrument. The entire study was performed in 10 mM HEPES pH 7.4, 300 mM NaCl, 3 mM EDTA, 1 mg/mL BSA, 0.02% NaN3 and 0.05% v/v Surfactant Tween-20 (HBS-EBT running buffer) at 25° C. All the samples were dispensed in a 384 tilted well plate and the plate was placed on the orbital shaker with the shake speed of 1000 rpm. hTrkB.mFc was captured on anti-mFc (AMC) Octet sensors while hTrkB.hFc or mTrkB.hFc were captured on anti-hFc (AHC) Octet sensors by dipping in wells containing 10 μg/mL of TrkB reagents for 2 minutes. hTrkB.mFc or hTrkB.hFc captured Octet biosensors were saturated by dipping in wells containing 20 nM of BDNF, hNT-4, or mNT-4 for 2 minutes followed by dipping Octet biosensors in wells containing 300 nM of different TrkB mAbs for 4 minutes. Binding of TrkB mAbs to the complex of TrkB and BDNF, hNT-4, or mNT-4 was determined using Scrubber 2.0c analysis software.

mouse TrkB.hFc [7] = biological target: T3, mouse TrkB.hFc; assay: BLI Octet, captured mTrkB.hFc saturated with BDNF, 300 nM mAb
Procedure: as §3

[8] = biological target: T4, mouse TrkB extracellular domain expressed with a C-terminal myc-myc-hexahistidine tag (mouse, UniProt P15209 32-429); assay: SPR Biacore T200, mAb captured (anti-mFc), 25C
T4 construct: also called mTrkB.mmH; mTRKB.mmH
Procedure: (§4) Equilibrium dissociation constants (KD values) for TrkB binding to purified anti-TrkB monoclonal antibodies were determined using a real-time surface plasmon resonance biosensor using a Biacore T200 instrument. All binding studies were performed in 10 mM Hepes pH 7.4, 150 mM NaCl, 3 mM EDTA, and 0.05% v/v Surfactant Tween-20 (HBS-ET running buffer) at 25° C. The Biacore sensor surface was first derivatized by amine coupling with rabbit anti-mouse Fc polyclonal antibody (GE Healthcare #BR-1008-38) to capture anti-TrkB monoclonal antibodies. Binding studies were performed on the following TrkB reagents; human TrkB extracellular domain expressed with a C-terminal myc-myc-hexahistidine tag (hTrkB.mmH; SEQ ID NO: 76; NP_001018074.1), mouse TrkB extracellular domain expressed with a C-terminal myc-myc-hexahistidine tag (mTRKB.mmH; SEQ ID NO: 79; NP_001020245), and rat TrkB extracellular domain expressed with a C-terminal myc-myc-hexahistidine tag (rTRKB.mmH; SEQ ID NO: 84; XP_002721319.1). […] Kinetic association (kₐ) and dissociation (kd) rate constants were determined by fitting the real-time binding sensorgrams to a 1:1 binding model with mass transport limitation using Scrubber 2.0c curve-fitting software. Binding dissociation equilibrium constants (KD) and dissociative half-lives (t½) were calculated from the kinetic rate constants as: […]

[9] = biological target: B1; assay: SPR Biacore T200, mAb captured (anti-mFc), 25C
Procedure: as §4

[10] = biological target: T5, human TrkB extracellular domain expressed with a C-terminal myc-myc-hexahistidine tag (human, UniProt Q16620 32-430); assay: SPR Biacore T200, mAb captured (anti-mFc), 25C
T5 construct: also called hTrkB.mmH; hTRKB.mmH
Procedure: as §4

[11] = biological target: B1; assay: blocking ELISA, rat TrkB.mmh pre-mixed with mAb, plate-coated BDNF
Procedure: (§5) Experiments were carried out using the following procedure. Human BDNF was coated at a concentration of 0.5 μg/mL (for blocking mouse TrkB.hFc interaction) or 0.3 μg/mL (for blocking rat TrkB.mmh interaction) in PBS on 96-well microtiter plate and incubated overnight at 4° C. […] In a 96-well dilution plate, 850 pM mouse TrkB.hFc or rat TrkB.mmh was mixed with the three-fold serially diluted anti-mouse TrkB antibodies and control antibody. The final antibody concentrations ranged from 1.69 pM to 100 nM. The protein-antibody mix was incubated at room temperature (RT) for 1 hour. The pre-bound mix was then transferred in duplicates to microtiter plates coated with BDNF. A control containing assay buffer alone was included to calculate the baseline of the assay. The ELISA plates were incubated at RT for 1 hour and then washed with plate washing solution. Plate-bound mouse TrkB.hFc was detected with HRP-conjugated goat anti-human Fcγ fragment specific antibody (Jackson Immunoresearch) and rat TrkB.mmh was detected with HRP-conjugated anti-histidine antibody (Qiagen). The plates were incubated with detection antibody for 1 hour at RT and then washed with plate washing solution. The assay plates were developed with TMB colorimetric substrates according to the manufacturer's recommended procedure.
(§6) The absorbance at 450 nm for each well was recorded and plotted as a function of the concentration of antibody. Data was analyzed in GraphPad Prism software using a four-parameter logistic equation over an 11-point dose response curve and IC₅₀ values were calculated. […] Percent blockade at maximum concentration of the antibody tested was calculated as an indicator of the ability of the antibodies to block the binding of TrkB to BDNF on the plate relative to the baseline of the assay. Binding signal of 850 pM mouse or rat TrkB in absence of the antibody was defined as 100% binding or 0% blocking. The baseline signal of assay buffer alone was defined as 0% binding or 100% blocking.

mouse TrkB.hFc [12] = biological target: T3, mouse TrkB.hFc; assay: blocking ELISA, mouse TrkB.hFc pre-mixed with mAb, plate-coated BDNF
Procedure: as §5, §6

mouse TrkB.hFc [13] = biological target: T3, mouse TrkB.hFc; assay: BLI Octet, captured mTrkB.hFc, 300 nM mAb (NT-4 run)
Procedure: as §2

mouse TrkB.hFc [14] = biological target: T3, mouse TrkB.hFc; assay: BLI Octet, captured mTrkB.hFc, 300 nM mAb, no ligand
Procedure: as §3

[15] = biological target: T1, human TrkB expressed on …; assay: cell-based or functional assay; remark: listed apart in the source
[16] = biological target: T2, mouse TrkB extracellular domain fused …; assay: cell-based or functional assay; remark: listed apart in the source

Binder: B1
- EC50 [1]: 2.22 nM
- EC50 [2]: 2.2 nM

Binder: B2
- Activation (%), SRE-luciferase, 100 pM BDNF [3]: 52%
- Activation (%), SRE-luciferase, No BDNF [3]: 0%
- Activation (%), SRE-luciferase, 100 pM BDNF [4]: 67%
- Activation (%), SRE-luciferase, No BDNF [4]: 76%
- EC50 (M), SRE-luciferase, 100 pM BDNF [4]: 1e-10 M
- EC50 (M), SRE-luciferase, No BDNF [4]: 1.9e-10 M
- mAb Binding (nm) (mouse TrkB.hFc [5]): 0.47 nm
- antibody Binding (nm) (mouse TrkB.hFc [6]): 0.41 nm
- antibody Binding (nm) (mouse TrkB.hFc [7]): 0.35 nm
- 90 nM TrkB.mmH Bound (RU) [8]: 12 RU
- Kd [8]: 2.39 nM
- koff [8]: 0.000247 s⁻¹
- kon [8]: 103000 M⁻¹ s⁻¹
- t½ [8]: 47 min
- 90 nM rTrkB.mmH Bound (RU) [9]: 11 RU
- Kd [9]: 2.56 nM
- koff [9]: 0.00023 s⁻¹
- kon [9]: 90000 M⁻¹ s⁻¹
- t½ [9]: 50 min
- 90nM hTrkB.mmH Bound (RU) [10]: -1 RU
- % Blockade with 100 nM antibody [11]: 89.5%
- IC50 [11]: 0.184 nM
- % Blockade with 100 nM antibody (mouse TrkB.hFc [12]): 84.4%
- IC50 (mouse TrkB.hFc [12]): 0.426 nM
- mAb Binding (nm) (mouse TrkB.hFc [13]): 0.47 nm
- antibody Binding (nm) (mouse TrkB.hFc [14]): 0.47 nm

Binder: B3
- BDNF EC50 (M), SRE-luciferase (run of the 100 pM BDNF columns) [3]: 1e-10 M
- BDNF EC50 (M), SRE-luciferase (run of the No BDNF columns) [3]: 1.3e-10 M
- BDNF EC50 (M), SRE-luciferase (run of the 100 pM BDNF columns) [4]: 1.1e-10 M
- BDNF EC50 (M), SRE-luciferase (run of the No BDNF columns) [4]: 7.4e-11 M
- BDNF EC50 (M), SRE-luciferase [15]: 1e-10 M
- BDNF EC50 (M), SRE-luciferase [16]: 7.4e-11 M
